These are literature values, as cited in US20210333272A1.

This data set relates to CD63 fragment. The settings on record: CITED BasePair Biotechnologies CD63 aptamer data sheet; cited from earlier work.

Turning to BasePair CD63 aptamer (ATW0056), the Kd was 17.1 nM.
